Reference: patent US20210301005A1 (Genentech, published 2021)
Read-outs that look alike come from different tables or passages of the source.

How the values were obtained:
[1] = molecular target: T1, human TGFβ1, mature receptor-binding domain (human, UniProt P01137 279-390); assay: SPR
T1 construct: Peprotech; also called TGFb1

[2] = molecular target: T1, human TGFβ1, mature receptor-binding …; assay: cell-based or functional assay
[3] = molecular target: T2, human TGFβ2, mature receptor-binding domain (human, UniProt P09858 303-414 (pig entry), The mature TGFβ2 is a disulfide-linked homodimer of this 112-residue chain. The 4A11 epitope spans both monomers (p-1207).); assay: cell-based or functional assay
T2 sequence: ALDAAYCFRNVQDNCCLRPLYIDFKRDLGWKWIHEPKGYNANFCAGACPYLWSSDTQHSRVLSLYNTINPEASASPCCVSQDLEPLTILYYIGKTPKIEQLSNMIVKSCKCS

[4] = molecular target: T3, human TGFβ3, mature dimeric form (human, UniProt P10600 301-412); assay: cell-based or functional assay
T3 sequence: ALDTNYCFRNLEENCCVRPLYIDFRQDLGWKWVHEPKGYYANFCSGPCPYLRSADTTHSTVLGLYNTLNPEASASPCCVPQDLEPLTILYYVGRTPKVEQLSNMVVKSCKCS

[5] = molecular target: T1, human TGFβ1, mature receptor-binding …; assay: cell-based or functional assay; remark: listed apart in the source
[6] = molecular target: T2, human TGFβ2, mature receptor-binding …; assay: cell-based or functional assay; remark: listed apart in the source
[7] = molecular target: T3, human TGFβ3, mature dimeric form; assay: cell-based or functional assay; remark: listed apart in the source
[8] = molecular target: T3, human TGFβ3, mature dimeric form; assay: BIAcore T200
[9] = molecular target: T2, human TGFβ2, mature receptor-binding …; assay: BIAcore T200
Protocol: (§1) For binding affinity determinations of all humanized 2A10 antibodies, Surface Plasmon Resonance (SPR) measurement with a BIAcore™-T200 instrument was used. Briefly, series S CM5 biosensor chip with protein A was first applied to capture each humanized 2A10 variant to achieve approximately 100 response units (RU) on each flow cell, following by injection of 3-fold serial dilutions of human TGFβ1, TGFβ2 or TGFβ3 (0.02 nM to 5 nM) in HBS-EP buffer (0.01M HEPES pH 7.4, 0.15M NaCl, 3 mM EDTA and 0.05% v/v surfactant P20) at 25° C. with a flow rate of 50 μl/min for kinetics measurement. Association rates (ko.) and dissociation rates (koff) were calculated using a simple one-to-one Langmuir binding model (BIAcore T200 evaluation software version 2.0) to determine the equilibrium dissociation constant (KD), which was calculated as the ratio koff/kₒₙ.

[10] = molecular target: T3, human TGFβ3, mature dimeric form; assay: BIAcore T200; remark: listed apart in the source
Protocol: as §1

[11] = molecular target: T2, human TGFβ2, mature receptor-binding …; assay: BIAcore T200; remark: listed apart in the source
Protocol: as §1

[12] = molecular target: T3, human TGFβ3, mature dimeric form; assay: BIAcore T200; remark: listed apart in the source
Protocol: as §1

[13] = molecular target: T1, human TGFβ1, mature receptor-binding …; assay: cell-based or functional assay; remark: listed apart in the source
[14] = molecular target: T2, human TGFβ2, mature receptor-binding …; assay: cell-based or functional assay; remark: listed apart in the source
[15] = molecular target: T3, human TGFβ3, mature dimeric form; assay: cell-based or functional assay; remark: listed apart in the source
[16] = molecular target: T2, human TGFβ2, mature receptor-binding …; assay: SPR
[17] = molecular target: T3, human TGFβ3, mature dimeric form; assay: SPR

T1 sequence (P01137 279-390 limits assumed): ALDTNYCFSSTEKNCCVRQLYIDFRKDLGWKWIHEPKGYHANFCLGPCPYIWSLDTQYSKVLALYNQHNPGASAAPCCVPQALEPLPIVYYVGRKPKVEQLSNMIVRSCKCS

B1: 21D1 (antibody, V domains shown)
VH: QVQLVQSGAEVKKPGASVKVSCKASGYTFTDYNIHWVRQAPGQGLEWMGYIYPYDGETGYNQKFKSRVTMTTDTSTSTAYMELRSLRSDDTAVYYCARGYRWFAYWGQGTLVTVSS
VL: DIQMTQSPSSLSASVGDRVTITCRASSSVPYMHWFQQKPGKAPKSLIYATSNPAYGVPSRFSGSGSGTDFTLTISSLQPEDFATYYCQQWDLNPPAFGQGTKLEIKR
For B1, the Kd [1] was 8 pM, the “Blocking IC50” value [2] was 13 pM and the “Blocking IC50” value [3] was greater than 200000 pM. For the same binder, the “Blocking IC50” value [4] was greater than 200000 pM.

B2: h2A10.v2.N54Q (antibody, human IgG1, kappa, N297G, V domains shown)
VH: EVQLLESGGGLVQPGGSLRLSCAASGFDFNSYGMSWVRQAPGKGLELVADIVSKTYQYTTYYSDSVKDRFTISRDDSKSTVYLQMNSLRAEDTAVYYCTVAPGGSFDYWGQGTLVTVSS
VL: DIQLTQSPSSLSASVGDRVTITCRASQSVSISRFNLMHWYQHKPGKQPKLLIYRASNLASGIPSRFSGSGSGTDFTLTISSLQPEDFATYYCQHSRESPWTFGGGTKVEIKR
In the case of B2, the “HEKBlue TGFβ blocking IC50” value [5] is reported as greater than 200000 pM, the “HEKBlue TGFβ blocking IC50” value [6] is reported as greater than 200000 pM and the “HEKBlue TGFβ blocking IC50” value [7] is reported as 10 pM. The “fold drop in TGFβ3 binding against h2A10.v2” value [8] was less than 2 fold, the Kd [9] was 378 pM and the Kd [10] was 2.5 pM.

B3: h2A10.v2.T56A (antibody, human IgG1, kappa, N297G, V domains shown)
VH: EVQLLESGGGLVQPGGSLRLSCAASGFDFNSYGMSWVRQAPGKGLELVADIVSKTYNYATYYSDSVKDRFTISRDDSKSTVYLQMNSLRAEDTAVYYCTVAPGGSFDYWGQGTLVTVSS
VL: DIQLTQSPSSLSASVGDRVTITCRASQSVSISRFNLMHWYQHKPGKQPKLLIYRASNLASGIPSRFSGSGSGTDFTLTISSLQPEDFATYYCQHSRESPWTFGGGTKVEIKR
In the case of B3, the “HEKBlue TGFβ blocking IC50” value [5] is reported as greater than 200000 pM, the “HEKBlue TGFβ blocking IC50” value [6] is reported as greater than 200000 pM and the “HEKBlue TGFβ blocking IC50” value [7] is reported as 10 pM. It also gave a Kd [9] of 247 pM and a Kd [10] of 1 pM.

B4: h2A10.v3 (antibody, human IgG1, kappa, N297G, V domains shown)
VH: EVQLLESGGGLVQPGGSLRLSCAASGFDFNSYGMSWVRQAPGKGLELVSDIVSKTYSYTTYYSDSVKDRFTISRDDSKNTLYLQMNSLRAEDTAVYYCTVAPGGSFDYWGQGTLVTVSS
VL: DIQLTQSPSSLSASVGDRVTITCRASQSVSISRFNLMHWYQQKPGKAPKLLIYRASNLASGVPSRFSGSGSGTDFTLTISSLQPEDFATYYCQHSRESPWTFGGGTKVEIKR
notes: human IgG1
With B4 the Kd [11] was 482 pM, the Kd [12] was 2.6 pM and the “HEKBlue TGFβ blocking IC50” value [13] was greater than 200000 pM. For the same binder, the “HEKBlue TGFβ blocking IC50” value [14] was greater than 200000 pM and the “HEKBlue TGFβ blocking IC50” value [15] was 50 pM.

B5: h2A10.v4 (antibody, human IgG1, kappa, N297G, V domains shown)
VH: EVQLLESGGGLVQPGGSLRLSCAASGFDFNSYGMSWVRQAPGKGLELVSDIVSKTYNYATYYSDSVKDRFTISRDDSKNTLYLQMNSLRAEDTAVYYCTVAPGGSFDYWGQGTLVTVSS
VL: DIQLTQSPSSLSASVGDRVTITCRASQSVSISRFNLMHWYQQKPGKAPKLLIYRASNLASGVPSRFSGSGSGTDFTLTISSLQPEDFATYYCQHSRESPWTFGGGTKVEIKR
notes: human IgG1
B5 was tested, and the Kd [11] was 300 pM, the Kd [12] was 1.9 pM and the “HEKBlue TGFβ blocking IC50” value [13] was greater than 200000 pM. For the same binder, the “HEKBlue TGFβ blocking IC50” value [14] was greater than 200000 pM and the “HEKBlue TGFβ blocking IC50” value [15] was 10 pM.

B6: h2A10.v2.N54S (antibody, human IgG1, kappa, N297G, V domains shown)
VH: EVQLLESGGGLVQPGGSLRLSCAASGFDFNSYGMSWVRQAPGKGLELVADIVSKTYSYTTYYSDSVKDRFTISRDDSKSTVYLQMNSLRAEDTAVYYCTVAPGGSFDYWGQGTLVTVSS
VL: DIQLTQSPSSLSASVGDRVTITCRASQSVSISRFNLMHWYQHKPGKQPKLLIYRASNLASGIPSRFSGSGSGTDFTLTISSLQPEDFATYYCQHSRESPWTFGGGTKVEIKR
B6 was tested, and the “HEKBlue TGFβ blocking IC50” value [5] was greater than 200000 pM, the “HEKBlue TGFβ blocking IC50” value [6] was greater than 200000 pM and the “HEKBlue TGFβ blocking IC50” value [7] was 10 pM. The “fold drop in TGFβ3 binding against h2A10.v2” value [8] was less than 2 fold, the Kd [9] was 425 pM and the Kd [10] was 2.4 pM.

B7: 1D11 (antibody, V domains shown)
VH: QVQLQQSGPELVRPGASVKLSCKASGYIFITYWMNWVKQRPGQGLEWIGQIFPASGSTNYNEMFEGKATLTVDTSSSTAYMQLSSLTSEDSAVYYCARGDGNYALDAMDYWGQGTSVTVSS
VL: DIVLTQSPASLAVSLGQRATISCRASESVDSYGNSFMHWYQQKSGQPPKLLIYLASNLESGVPARFSGSGSRTDFTLTIDPVEADDAATYYCQQNNEDPLTFGAGTKLEIK
notes: also called pan-TGFβ antibody 1D11
Binder B7 has a Kd [1] of 38 pM, a Kd [16] of 9 pM and a Kd [17] of 7 pM. The “Blocking IC50” value [2] was 500 pM, the “Blocking IC50” value [3] was 3600 pM and the “Blocking IC50” value [4] was 40 pM.
